What is called koff is a measure of how fast the partners let go of each other.

For the test, the target named is recombinant fusion protein of MVP and glutathione-S-transferase (GST-MVP) (human) (UniProt Q14764). Briefly: SPR; BIAcore 2000; GST-MVP immobilised on CM-5 sensorchip (2000 resonance units); soluble Fab flowed at 25 μl per minute, room temperature, HBS-EP (0.01 M HEPES pH 7.4, 0.15 M NaCl, 3 mM EDTA, 0.005% polysorbate 20); dissociation rates only. (SPR reads the build-up and loss of mass on a sensor chip optically.)
Chain of UniProt Q14764 (Q14764 whole entry, the tested form may be a part): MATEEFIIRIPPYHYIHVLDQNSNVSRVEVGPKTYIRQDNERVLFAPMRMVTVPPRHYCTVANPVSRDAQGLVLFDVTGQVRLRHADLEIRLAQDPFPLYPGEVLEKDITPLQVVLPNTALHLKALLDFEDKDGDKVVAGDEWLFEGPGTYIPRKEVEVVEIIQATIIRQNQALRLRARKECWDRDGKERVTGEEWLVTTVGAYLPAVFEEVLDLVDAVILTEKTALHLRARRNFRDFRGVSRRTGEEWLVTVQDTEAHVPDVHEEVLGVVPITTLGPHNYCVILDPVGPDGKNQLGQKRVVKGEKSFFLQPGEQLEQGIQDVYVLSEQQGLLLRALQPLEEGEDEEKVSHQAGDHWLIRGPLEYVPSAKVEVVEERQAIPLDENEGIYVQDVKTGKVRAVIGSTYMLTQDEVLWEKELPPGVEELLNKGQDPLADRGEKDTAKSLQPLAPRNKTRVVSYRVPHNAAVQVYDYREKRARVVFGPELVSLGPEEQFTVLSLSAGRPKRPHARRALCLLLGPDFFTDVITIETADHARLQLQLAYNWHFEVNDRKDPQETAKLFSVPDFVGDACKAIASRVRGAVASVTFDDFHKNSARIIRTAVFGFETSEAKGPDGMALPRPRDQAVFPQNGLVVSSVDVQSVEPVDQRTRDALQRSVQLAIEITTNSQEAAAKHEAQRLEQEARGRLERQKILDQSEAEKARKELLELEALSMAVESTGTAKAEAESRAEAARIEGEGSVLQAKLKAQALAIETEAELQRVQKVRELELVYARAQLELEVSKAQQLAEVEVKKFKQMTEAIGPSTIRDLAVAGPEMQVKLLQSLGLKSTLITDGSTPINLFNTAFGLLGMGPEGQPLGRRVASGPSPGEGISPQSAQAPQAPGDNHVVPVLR

B1: MVP-φ4 human Fab fragment (soluble) (Fab, V domains shown)
VH: QLQLQESGPGLVKPSETLSLTCSVSGGSISSGGYYWSWIRQRPGKGLEWIGYIYYSGSTTYNPSLKSRVTMSVDTSKNQFSLKLSSVTAADTAFYYCARQGVYYYYGMDVWGQGTTVTVSS
VL: NFMLTQPHSVSESPGKTITISCTRSSGSIGSNYVYWYQQRPDSSPTIVIYADNERPSGVPGRFSGSIDSSSNSASLTISGLRAEDEADYYCQSYSNNKWIFGGGTKVTVL
As for B1, the koff turned out to be 0.0013 s⁻¹.

(Values after publication PMC2364164.)
